Five molecules from paper doi:10.1101/2024.07.10.602929 (bioRxiv, 2024) can be followed below.

Where no end group is shown, it is not given here. [ ]: non-standard residue; d: D form. The star is where a group is joined. Biotin = O=C1N[C@H]2[C@H](CS[C@H]2CCCCC(=O)*)N1; pY = N[C@@H](Cc1ccc(OP(=O)(O)O)cc1)C(=O)O

Assay in all cases: BLI; Octet Red 96; N-terminally biotinylated peptides immobilised on High Precision Streptavidin (SAX) biosensors; purified hATG8 proteins as analyte in increasing concentrations; steady-state evaluation, one-site binding model; individual measurements unless stated otherwise
Common to all, as to conditions: both partners purified
In general terms: BLI is a label-free optical method that tracks binding on a fibre tip over time.

For assay [1], the target named is T1, GABARAP (γ-aminobutyric acid type A receptor-associated protein) (human, UniProt O95166 1-117).
T1 construct: GABARAP, human, full-length (unprocessed) version; For the NMR titrations the same construct was made 15N-labelled in M9 minimal medium; also called 15N-GABARAP; free GABARAP; source: E. coli BL21(DE3), pGEX-4-T2, purified (Glutathione Sepharose 4B, thrombin cleavage, SEC)

The target in another assay is T2, GABARAPL2 (human, UniProt P60520 1-117).
T2 construct: GABARAPL2, human, full-length (unprocessed) version; source: E. coli BL21(DE3), pGEX-4-T2, purified (Glutathione Sepharose 4B, thrombin cleavage, SEC)

Another assay deals with T3, GABARAPL1 (human, UniProt Q9H0R8 1-117).
T3 construct: GABARAPL1, human, full-length (unprocessed) version; source: E. coli BL21(DE3), pGEX-4-T2, purified (Glutathione Sepharose 4B, thrombin cleavage, SEC)

A further assay concerns the target T4, LC3A (human, UniProt Q9H492 1-121).
T4 construct: LC3A, human, full-length (unprocessed) version; also called MAP1LC3 (microtubule-associated protein 1 light chain 3) A; source: E. coli BL21(DE3), pGEX-4-T2, purified (Glutathione Sepharose 4B, thrombin cleavage, SEC)

A further assay addresses T5, GABARAP Y49A/L50A (human, UniProt O95166 1-117, Y49A | L50A).
T5 construct: GABARAP, human, full-length (unprocessed) version with Y49A and L50A; source: E. coli BL21(DE3), pGEX-4-T2, purified (Glutathione Sepharose 4B, thrombin cleavage, SEC)

The target in a further assay is T6, GABARAPL1 Y49A/L50A (human, UniProt Q9H0R8 1-117, Y49A | L50A).
T6 construct: GABARAPL1, human, full-length (unprocessed) version with Y49A and L50A; everywhere else Y49A/L50A; also called GABARAPL1_(Y49A/L59A); source: E. coli BL21(DE3), pGEX-4-T2, purified (Glutathione Sepharose 4B, thrombin cleavage, SEC)
T6 sequence (Q9H0R8 whole entry Y49A/L50A): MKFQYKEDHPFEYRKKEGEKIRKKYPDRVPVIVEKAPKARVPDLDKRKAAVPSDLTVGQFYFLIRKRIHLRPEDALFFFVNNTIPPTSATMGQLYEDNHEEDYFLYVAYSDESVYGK

T2 sequence (P60520 whole entry): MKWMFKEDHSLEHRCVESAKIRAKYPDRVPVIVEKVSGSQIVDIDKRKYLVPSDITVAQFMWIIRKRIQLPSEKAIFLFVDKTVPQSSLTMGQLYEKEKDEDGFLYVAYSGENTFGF
T1 sequence (O95166 whole entry): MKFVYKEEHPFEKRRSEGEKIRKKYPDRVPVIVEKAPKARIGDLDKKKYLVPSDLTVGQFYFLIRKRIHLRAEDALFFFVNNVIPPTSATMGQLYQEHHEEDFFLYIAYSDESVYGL
T5 sequence (O95166 whole entry Y49A/L50A): as the sequence (O95166 whole entry) above, with Y49A, L50A counted along it

B1: EGFR LIR2 peptide phosphorylated at Y1197 (peptide, UniProt P00533 1190-1210, looked up)
peptide: Biotin-STAENAE[pY]LRVAPQSSEFIGA
notes: EGFR residues 1190-1210 (LIR2); also called LIR2 pY1197; source: synthetic peptide, bought: CASLO (≥95% purity)
B1: the binding result (in assay [1]; in the assay with GABARAPL2; with GABARAPL1; with LC3A) was “binds” each time.

B2: PCM1 LIR peptide (pericentriolar material 1 protein residues 1954-1968), N-terminally biotinylated (peptide, UniProt Q15154 1954-1968, looked up)
peptide: Biotin-ISQKSDEEDFVKVED
notes: Pericentriolar material 1 protein (PCM1), LIR motif, residues 1954-1968; source: synthetic peptide, bought: CASLO (≥95% purity)
The Kd is the concentration at which binding is half-saturated. Low values mean a tighter complex, high ones a looser complex. For the molecule B2, the Kd was 4.2 µM in assay [1], 99.2 µM in the assay with GABARAP Y49A/L50A and 273 µM with GABARAPL1 Y49A/L50A.

B3: EGFR LIR1 peptide (EGFR residues 1076–1099), N-terminally biotinylated (peptide)
peptide: Biotin-ALTEDSIDDTFLPVPEYINQSVPK
notes: Epidermal growth factor receptor (EGFR), residues 1076-1099 of the regulatory C-terminal domain, core LIR FLPV at 1086-1089; also called EGFR LIR1_(1076–1099); source: synthetic peptide, bought: CASLO (≥95% purity)
Consider B3, for which the Kd with GABARAPL1 was found to be 29.7 µM. This lies in the double-digit micromolar range.

B4: EGFR LIR1 peptide phosphorylated at Y1092 (peptide, UniProt P00533 1076-1099, looked up)
peptide: Biotin-ALTEDSIDDTFLPVPE[pY]INQSVPK
notes: EGFR residues 1076-1099 (LIR1); also called phosphorylated (p) EGFR LIR1 variant pY1092; source: synthetic peptide, bought: CASLO (≥95% purity)
On to B4, for which the binding result in the assay with GABARAPL2 and with LC3A was “binds” throughout.

B5: EGFR LIR2 peptide (EGFR residues 1190–1210), N-terminally biotinylated (peptide, UniProt P00533 1190-1210, looked up)
peptide: Biotin-STAENAEYLRVAPQSSEFIGA
notes: Epidermal growth factor receptor (EGFR), residues 1190-1210, core LIR YLRV at 1197-1200; source: synthetic peptide, bought: CASLO (≥95% purity)
Turning to B5, the binding result with GABARAPL2, with GABARAPL1 and in the assay with LC3A was “binds” in each case.
